From paper PMC6188088

Tests used:
[1] = tested on: T1, TnpA IS1535 (WT) (Mycobacterium tuberculosis), ORF:81838cbf; experiment: EMSA
T1 sequence: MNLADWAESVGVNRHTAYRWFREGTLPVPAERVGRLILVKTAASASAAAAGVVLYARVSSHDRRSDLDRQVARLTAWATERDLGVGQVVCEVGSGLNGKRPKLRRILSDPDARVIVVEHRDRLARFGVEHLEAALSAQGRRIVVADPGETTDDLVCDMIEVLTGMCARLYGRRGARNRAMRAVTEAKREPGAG

[2] = tested on: TnpA IS1535 (WT) (Mycobacterium tuberculosis); experiment: EMSA
[3] = target: TnpA^IS1535, full length, wild type (Mycobacterium tuberculosis); experiment: native gel or EMSA; TnpA (32 nM) and TnpA-MBP (8 to 256 nM), alone or mixed, incubated with the IS1535 LEΔ54 DNA probe, which gives only complex I; oligomer bound to DNA judged from the absence of a band of intermediate mobility
[4] = target: TnpA^ISC1926 C-terminal domain (CTD), residues 65-221 (Sulfolobus islandicus); experiment: crystal structure; TnpA^ISC1926 CTD (65-221), hanging drop, 20 mM MOPS pH 7.0, 100 mM Na-acetate, 0.1 mM DTT mixed with 8% tacsimate pH 4.0, 20% PEG3350, 25°C; 2.9 Å; two dimers in the asymmetric unit

With “AAAAAGAATTCCGACTCCGCCCAATCCGCCAGATTCACGCCGCCAATTAGAACACACTAACGCACACTAAAACACACTCAACACGCAACAGCTCTGAACCCCAGAGCGTTGGCCGACAAGCGCCCACCACACACGGACGTCTTTTT (double strand) [IS1535 LE 149 bp]” the K half [1] was < 10 nM.
In the case of IS1535 LE 149 bp, the K half [2] is reported as < 10 nM.
Work on IS1535 RE 139 bp yielded a binding signal ([2]; scale: % of probe as PEC) of 3.
For “TnpA^IS1535, full length, wild type (enzyme)”, the stoichiometry N [3] was 2.
With “TnpA^ISC1926 C-terminal domain (CTD), residues 65-221 (domain or fragment)” the stoichiometry N [4] was 2.
